Experimental findings from US20260139017A1, “COMPOSITIONS AND METHODS USING REELIN IN ALZHEIMER'S DISEASE” (The General Hospital Corporation, priority 2022, published 2026) are described below.

“Also recorded” adds a separate entry of the source.

One data set has as its system SH-SY5Y cells. In words: Lactate dehydrogenase assay in SH-SY5Y cells treated with oligomeric Tau. Format: cell-based. The method, then: A lactate dehydrogenase assay was performed in SH-SY5Y cells treated 24 h with pre-formed oligomeric Tau (oTau) either alone or in the presence of C-term RELN WT (184I). The lactate dehydrogenase assay was performed as follows. 100 k neuroblastoma (SH-SY5Y, ATCC) cells/well were plated in 96-well TC treated plates in growth media (DMEM/F12, Gibco, 10% heat-inactivated FBS, R&D, 200 ug normocin) and allowed to attach and grow overnight. Next day, test compounds were allowed to thaw on wet ice. Phenol-free and serum free DMEM/F12 no serum no antibiotic media was warmed and a 50 mL aliquot was sterile filtered (0.22 um) as test media. In TC cabinet, thawed test compounds were mixed via pipetting then added to final concentration for each test condition in filtered test media and mixed through pipetting. Test conditions were allowed to pre-incubate for 15 mins at RT in TC cabinet. Wells were gently aspirated and gently washed with 200 uL prewarmed Test media, then gently aspirated and 100 μL of test conditions were added and allowed to incubate in TC incubator at 5% CO2 for 21 hrs. LDH performed using Roche kit according to manufacturer's protocol.

The target in a further data set is T1, NRP1 (Homo sapiens, UniProt O14786).
T1 construct: purchased R&D 3870-N1-025
T1 sequence (O14786 22-644 isoform O14786-2 limits assumed): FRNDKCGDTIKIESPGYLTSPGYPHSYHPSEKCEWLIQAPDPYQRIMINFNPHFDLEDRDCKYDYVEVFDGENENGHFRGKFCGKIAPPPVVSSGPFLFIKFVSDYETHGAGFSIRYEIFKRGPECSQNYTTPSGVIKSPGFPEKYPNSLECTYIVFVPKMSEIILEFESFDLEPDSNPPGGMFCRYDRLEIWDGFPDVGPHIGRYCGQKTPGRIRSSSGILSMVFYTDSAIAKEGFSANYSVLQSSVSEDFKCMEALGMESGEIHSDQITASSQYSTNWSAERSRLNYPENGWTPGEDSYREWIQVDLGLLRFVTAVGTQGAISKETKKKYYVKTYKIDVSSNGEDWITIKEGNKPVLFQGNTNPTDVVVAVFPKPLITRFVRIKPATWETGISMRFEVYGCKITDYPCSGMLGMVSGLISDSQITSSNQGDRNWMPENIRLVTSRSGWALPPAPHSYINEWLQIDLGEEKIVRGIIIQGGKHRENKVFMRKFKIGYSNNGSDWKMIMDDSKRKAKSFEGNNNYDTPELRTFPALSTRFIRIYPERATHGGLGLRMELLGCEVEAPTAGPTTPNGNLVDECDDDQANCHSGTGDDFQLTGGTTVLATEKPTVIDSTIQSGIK
In words: Bio-layer interferometry (BLI) of CTR-RELN-NRP-1 interactions. The data set is classed as binding. The settings on record: immobilized biotinylated NRP1. The method, then: Bio-layer interferometry (BLI) was additionally used to assess NRP1-protein kinetics at 30° C. and 1000 rpm agitation. 1 mg/mL NRP1 (R&D 3870-N1-025) was biotinylated at a 1:2 molar ratio, desalted, and immobilized on the SA biosensor tip (Pall ForteBio) surface. This was followed by 1) 180 seconds baseline buffer diluent, 2) loading of the ligand (NRP1), 3) 180 seconds baseline buffer diluent, 4) 240 seconds association (analyte), and 5) 300 seconds disassociation in assay buffer. Assay buffer: SD Buffer (pH7.4 PBS, 0.05% tween20, 0.01% BSA).
The experimental data were fit with the 1:1 binding model and analyzed with global fitting using Octet Data Analysis software to calculate KD.
Bio-layer interferometry (BLI) was used to assess NRP1-protein kinetics at 30° C. and 1000 rpm agitation using previously published methods. 1 mg/mL NRP1 (R&D 3870-N1-025) was biotinylated at a 1:2 molar ratio, desalted, and immobilized on the SA biosensor tip (Pall ForteBio) surface. This was followed by 1) 180 seconds baseline buffer diluent, 2) loading of the ligand (NRP1), 3) 180 seconds baseline buffer diluent, 4) 240 seconds association (analyte), and 5) 300 seconds disassociation in assay buffer. Assay buffer: SD Buffer (pH7.4 PBS, 0.05% tween20, 0.01% BSA).

B1: pfcn-huIgG2-C-termH3447WT (protein)
chain: MYRMQLLSCIALSLALVTNSAPLERKSSVECPPCPAPPVAGPSVFLFPPKPKDTLMISRTPEVTCVVVDVSHEDPEVQFNWYVDGVEVHNAKTKPREEQFNSTFRVVSVLTVVHQDWLNGKEYKCKVSNKGLPAPIEKTISKTKGQPREPQVYTLPPSREEMTKNQVSLTCLVKGFYPSDIAVEWESNGQPENNYKTTPPMLDSDGSFFLYSKLTVDKSRWQQGNVFSCSVMHEALHNHYTQKSLSLSPGARTSTRKQNYMMNFSRQHGLRHFYNRRRRSLRRYP
On to B1, for which, in the data set with SH-SY5Y cells, the “cytotoxicity of construct (LDH)” value is on record as “did not show any cytotoxicity”. In the data set on SH-SY5Y cells (oTau with construct), the “oligomeric Tau-induced cytotoxicity (LDH)” value is given as “reduction of oTau-derived cytotoxicity; also recorded: Reduced oligomeric Tau-induced cytotoxicity”. In the data set with NRP1, this molecule returned a ka of 9400 M⁻¹ s⁻¹ and a kd of 0.00573 s⁻¹.
